From the RNAGym collection of RNA variant scans (doi:10.1073/pnas.2313332121)

B1: TPR t1 (parent)
chain: GACCAAUCUGCCCUCAGAGCUCGAGAACAUCUUCGGAUGCAGAGGAGGCAGGCUUCGGUGGCGCGAUAGCGCCAACGUCCUCAACCUCCAAUGCAUCCCACCACAUGAUGAUGCCUGAAGAGCCUUGGUUUUUUG

Variants of: B1
Assay: polymerase ribozyme fitness, log enrichment relative to wild type (log ratio); higher = more active; in vitro selection for triplet polymerase activity
How it was run: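 Each subunit of a heterodimeric triplet polymerase ribozyme was represented by a PCR-built, transcribed mutant library that underwent triplicate single-round in vitro selection with frozen incubation at −7 °C. Extended constructs were recovered by gel excision, streptavidin-bead capture and RT-PCR, and Illumina sequencing of input and output libraries kept genotypes with ≥10 input reads and ≥1 read per output. Fitness is the logarithm of genotype enrichment relative to wild-type enrichment, from inverse-variance-weighted replicate averages, with a logarithm base of 2.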

Variant	polymerase ribozyme fitness (log ratio)
GACCAAUCUGCCUUCAGAGCUCGAGAACAUCUUCGGAUGCAGAGGAGGCAGGCUUCGGUGGCACGAUAGCGCCAACGUCCUCAACCUCCAAUGCAUCCCAUCACAUGAUGAUGCCUGAAGAGCCUUGGUUUUUUG [C13U G63A C101U]	-0.511
GACCAAUCUGCCUUCAGAGCUCGAGAACAUCUUCGGAUGCAGAGGAGGCAGGCUUCGGUAGCGCGAUAGCGCCAACGUCCUCAACCUCCAAUGCAUCCCACCACAUGAUGAUGACUGAAGAGCCUUGGUCUUUUG [C13U G60A C114A U130C]	-0.229
GACCAAUCUGCCUUCAGAGCUCGAGAACAUCUUCGGAUGCAGAGUAGGCAGACUUCGGUGGCGCGAUAGCGCCAACGUCCUCCACCUCCAAUGCAUCCCACCUCAUGAUGAUGUCUGAAGAGCCUUAGUUUUUUG [C13U G45U G52A A83C A103U C114U G127A]	-5.65
GACCAAUCUGCCUUCAGAGCUCGAGAACAUCUUCGGAUGCAGAGGAUGCAGGCUUCGGUGGCGCGAUAGCGCCAACGUCCUCAACCUCCAAUGCAUCCCACCACAUGAUGAUGCCUUAAGAGCCUUGGUUUUUUG [C13U G47U G117U]	-2.08
GACCAAUCUGCCUUCAGAGCUCGAGAACAUCUUCGGAUGCAGAGGAGGCAGGCUUCAGUGGCGCGAUAACGCCAACGUCCUCAACCUCCAAUGCAUCCCACCACAUGAUUAUGCCUGAAGAGCCUUGGUUUUUUG [C13U G57A G69A G110U]	-6.08
GACCAAUCUGCCUUCAGAGCUCGAGAACAUCUUCGGAUGCAGAGAAGGCAGGCUUCGGUCGCGCGAUAGCGCCAACGUCCUCAACCUCCAAUGCAUCCCACCACAUGAUGAUGCCUGAAGAGCCUUGGUUUUUUG [C13U G45A G60C]	-0.761
GACCAAUCUGCCUUCAGAGCUCGAGAACAUCUUCGGAUGCAGAGGAGGCAGGCUUCGGUGGCUCGAUAGGGCCAACGUCCUCAACCUCCAAUGCAUCCCACCACAUGAUGAUGACUGAACAGCCUUGGUUUUUUG [C13U G63U C70G C114A G120C]	-0.574
GACCAAUCUGCCUUCAGAGCUCGAGAACAUCUUCGGAUGCAGAGGAGGCAUUCUUCGGUGGCGCGAUAGCGCCAACGUCCUAAACCUCCAAUGCAUCCCACCACAUGAUGAUGCCUGAAGAGCCUUGGUUUUUUG [C13U G51U G52U C82A]	-5.14
GACCAAUCUGCCUUCAGAGCUCGAGAACAUCUUCGGAUGCAGAGGAGGCAGGCUUCGGUGCCGCGAUAGCGCCAACGUCCUCAACCUCCAAUGCAUCCCAACACAUGAUGAUGCCUGAAGAGCCUUGGUUUUUUG [C13U G61C C101A]	-2.82
GACCAAUCUGCCUUCAGAGCUCGAGAACAUCUUCGGAUGCAGAGGAGGCAGGCUUCGGUGUCGCGAUAGCGCCAACGUCCUCAACCUCCAAUGCAUCCCACCACAUGAUGAUGCCUGAAGAGCCUUGGUUUUUUG [C13U G61U]	0.429
GACCAAUCUGCCUUCAGAGCUCGAGAACAUCUUCGGAUGCAGAGGAGGCAGUCUUCGGUGGCGCGAUAGCGCCAACGUCCUCAAUCUCCAAUGCAUCCCACCACAUGAUGAUGCCUGAAGAGCCUUGGUUUUUUG [C13U G52U C85U]	-2.32
GACCAAUCUGCCUUCAGAGCUCGAGAACAUCUUCGGAUGCAGAGGAGGCAGCCUUCGGUAGCGCGAUAGCGCCAACGUCCUCAACCUCCAAUGCGUCUCACCACAUGAUGAUGCCUGAAGAGCCUGGGUUUUUUG [C13U G52C G60A A95G C98U U126G]	-4.8
GACCAAUCUGCCUUCAGAGCUCGAGAACAUCUUCGGAUGCAGAGGACGCAGGCUUCGGUGGCGCGAUAGCGCCAACGUCCUCAACCUCCAAUGCAUCCCACCACAUGAUGAUGCCUGAAGAGCCUUGGUUUUUUG [C13U G47C]	-1.18
GACCAAUCUGCCUUCAGAGCUCGAGAACAUCUUCGGAUGCAGAGGAGGCAGGCUUCAGUGGCGCGAUAGCGCCAACGUACUCAACCUCCAAUGCAUCCCACCACAUGAUGAUGCCUGAAGAGCCUUGGUUUUUUG [C13U G57A C79A]	-1.12
GACCAAUCUGCCUUCAGAGCUCGAGAACAUCUUCGGAUGCAGAGGAGGCAGGCUUCGGUGGCUCGAUAGCGCCAACGUCCUCAACAUCCAAUGCAUCCCACCACAUGAUGAAGCCUGAAGAGCCUUGGUUUUUUG [C13U G63U C86A U112A]	-1.22
GACCAAUCUGCCUUCAGAGCUCGAGAACAUCUUCGGAUGCAGAGGAGGCAGGCUUCGGUCGCGCGAUAGCGCCAACGUCCUCAACCUCCAAUACAUCCCACCACAUGAUAAUGCCUGAAGAGCCUUGGUAUUUUG [C13U G60C G93A G110A U130A]	-3.35
GACCAAUCUGCCUUCAGAGCUCGAGAACAUCUUCGGAUGCAGAGGAGGCAUGCUUCGGUGGCGCGAUAGCGCCAACGUCCUCAACCUCCAAUGCAUCCCACCACAUGAUGAUGCCCGAAGAGCCUUGGUUUUUUG [C13U G51U U116C]	-3.09
GACCAAUCUGCCUUCAGAGCUCGAGAACAUCUUCGGAUGCAGAGGAGGCAGGCUUCGGUGGCCCGAUAGCGCCAAAGACCUCAACCUCCAAUGCAUCCCACCACAUGAUGAUGCCUGAAGAGCCUUGGUUUUUUG [C13U G63C C76A U78A]	-6.73
GACCAAUCUGCCUUCAGAGCUCGAGAACAUCUUCGGAUGCAGAGGAGACAGGCUUCGGUGGCGCGAUAGCGCCAACGUCCUCAACCUCCAAUGCAUCCCACCACAUGAUGAUGCCUGAAGAUCCUUGGUUUUUUG [C13U G48A G122U]	0.102
GACCAAUCUGCCUUCAGAGCUCGAGAACAUCUUCGGAUGCAGAGGAGGCAAGCUUGGGUGGCGCGAUAGCGACAACGGCCUCAACCUCUAAUGCAUCCCACCACAUGAUGAUGCCUGAAGAGCCUUGGUUUUUUG [C13U G51A C56G C72A U78G C89U]	-0.967
GACCAAUCUGCCUUCAGAGCUCGAGAACAUCUUCGGAUGCAGAGGAGGCAGGCUUCGGUGGCACGAUAGCGCCAACAUCCUCAACCUCUUAUGCAUCCCACCACAUGAUGAUACCUGAAGAACCAUCGUUUUUUG [C13U G63A G77A C89U A90U G113A G122A U125A G127C]	-5.73
